Measured values from IntAct's records for PubMed 11801603.

B1: Baculoviral IAP repeat-containing protein 7 (Homo sapiens), Q96CA5 (parent)
chain: MGPKDSAKCLHRGPQPSHWAAGDGPTQERCGPRSLGSPVLGLDTCRAWDHVDGQILGQLRPLTEEEEEEGAGATLSRGPAFPGMGSEELRLASFYDWPLTAEVPPELLAAAGFFHTGHQDKVRCFFCYGGLQSWKRGDDPWTEHAKWFPSCQFLLRSKGRDFVHSVQETHSQLLGSWDPWEEPEDAAPVAPSVPASGYPELPTPRREVQSESAQEPGGVSPAEAQRAWWVLEPPGARDVEAQLRRLQEERTCKVCLDRAVSIVFVPCGHLVCAECAPGLQLCPICRAPVRSRVRTFLS
B2: Baculoviral IAP repeat-containing protein 7 (Homo sapiens), Q96CA5 (parent)
chain: B1 chain
partner: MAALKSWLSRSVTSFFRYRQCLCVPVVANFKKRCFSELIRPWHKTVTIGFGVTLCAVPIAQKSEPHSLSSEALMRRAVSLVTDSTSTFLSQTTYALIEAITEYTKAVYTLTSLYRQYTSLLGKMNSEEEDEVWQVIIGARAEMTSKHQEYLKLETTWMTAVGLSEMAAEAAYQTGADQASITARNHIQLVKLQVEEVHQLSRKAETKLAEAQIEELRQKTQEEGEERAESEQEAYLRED

Variants of: B1
Conditions: with casp9_human CASP9, P55211
Sequence of casp9_human CASP9, P55211 (P55211 whole entry): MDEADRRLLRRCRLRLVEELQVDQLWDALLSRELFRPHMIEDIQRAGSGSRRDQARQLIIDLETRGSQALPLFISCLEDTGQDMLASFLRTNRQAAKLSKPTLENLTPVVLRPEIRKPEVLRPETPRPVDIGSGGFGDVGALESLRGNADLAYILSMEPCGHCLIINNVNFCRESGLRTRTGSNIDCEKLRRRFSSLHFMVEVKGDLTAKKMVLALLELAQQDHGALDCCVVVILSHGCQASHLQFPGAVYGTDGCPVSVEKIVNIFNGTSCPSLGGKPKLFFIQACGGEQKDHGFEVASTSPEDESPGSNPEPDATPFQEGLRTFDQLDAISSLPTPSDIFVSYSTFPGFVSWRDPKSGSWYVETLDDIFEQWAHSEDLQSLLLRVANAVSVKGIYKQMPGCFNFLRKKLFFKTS

| Variant | effect of a mutation on the interaction |
| --- | --- |
| D138A | decreasing interaction |

Variants of: B2
Conditions: with dbloh_human DIABLO

| Variant | effect of a mutation on the interaction |
| --- | --- |
| D138A | decreasing interaction |
| D120A | decreasing interaction |
